Experiments:
[1] = molecular target: T1, KH RNA binding domain containing, signal transduction associated 2, transcript variant 2 (human, UniProt Q5VWX1 1-349)
T1 construct: HuProt array protein, full-length recombinant from yeast; also called KHDRBS2
T1 sequence: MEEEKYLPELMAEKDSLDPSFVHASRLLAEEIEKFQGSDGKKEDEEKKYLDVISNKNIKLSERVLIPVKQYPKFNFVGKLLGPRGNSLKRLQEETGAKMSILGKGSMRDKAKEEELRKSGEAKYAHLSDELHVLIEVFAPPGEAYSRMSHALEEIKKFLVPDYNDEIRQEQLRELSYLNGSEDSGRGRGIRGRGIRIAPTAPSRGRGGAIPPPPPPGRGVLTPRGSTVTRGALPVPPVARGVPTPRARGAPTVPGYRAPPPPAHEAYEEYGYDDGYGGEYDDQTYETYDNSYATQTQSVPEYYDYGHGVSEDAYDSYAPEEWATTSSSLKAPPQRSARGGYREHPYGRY

[2] = molecular target: T2, nudE neurodevelopment protein 1, transcript variant 1 (human, UniProt Q9NXR1 1-335)
T2 construct: HuProt array protein, full-length recombinant from yeast; also called NDE1
T2 sequence: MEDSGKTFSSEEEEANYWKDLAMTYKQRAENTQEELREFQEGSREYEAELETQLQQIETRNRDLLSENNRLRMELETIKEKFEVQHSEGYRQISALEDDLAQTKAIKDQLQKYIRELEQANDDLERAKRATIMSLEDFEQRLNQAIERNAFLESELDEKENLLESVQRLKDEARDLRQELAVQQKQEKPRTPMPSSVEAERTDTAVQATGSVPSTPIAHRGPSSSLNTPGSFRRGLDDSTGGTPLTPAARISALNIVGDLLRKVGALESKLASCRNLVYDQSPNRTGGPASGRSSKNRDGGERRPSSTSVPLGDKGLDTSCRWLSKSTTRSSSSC

[3] = molecular target: T3, sorting nexin 33, transcript variant 1 (human, UniProt Q8WV41 1-574)
T3 construct: HuProt array protein, full-length recombinant from yeast; also called SNX33
T3 sequence: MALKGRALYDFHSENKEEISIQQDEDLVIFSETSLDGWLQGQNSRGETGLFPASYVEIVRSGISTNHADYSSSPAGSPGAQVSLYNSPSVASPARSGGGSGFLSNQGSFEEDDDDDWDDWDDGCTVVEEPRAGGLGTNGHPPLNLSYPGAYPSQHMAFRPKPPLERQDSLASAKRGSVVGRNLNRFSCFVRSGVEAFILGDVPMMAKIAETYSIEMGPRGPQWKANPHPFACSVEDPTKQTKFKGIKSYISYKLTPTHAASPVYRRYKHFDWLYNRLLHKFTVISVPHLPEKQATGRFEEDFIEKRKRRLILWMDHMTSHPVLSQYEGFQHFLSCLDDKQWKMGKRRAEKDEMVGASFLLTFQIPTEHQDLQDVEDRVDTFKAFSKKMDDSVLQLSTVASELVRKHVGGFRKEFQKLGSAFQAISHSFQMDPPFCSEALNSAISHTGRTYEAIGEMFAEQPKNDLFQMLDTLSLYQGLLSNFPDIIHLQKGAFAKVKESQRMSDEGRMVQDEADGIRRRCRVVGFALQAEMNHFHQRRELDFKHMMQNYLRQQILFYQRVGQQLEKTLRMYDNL

[4] = molecular target: T4, phospholipid scramblase 4, transcript variant X4 (human, UniProt Q9NRQ2 1-329)
T4 construct: HuProt array protein, full-length recombinant from yeast; also called PLSCR4
T4 chain: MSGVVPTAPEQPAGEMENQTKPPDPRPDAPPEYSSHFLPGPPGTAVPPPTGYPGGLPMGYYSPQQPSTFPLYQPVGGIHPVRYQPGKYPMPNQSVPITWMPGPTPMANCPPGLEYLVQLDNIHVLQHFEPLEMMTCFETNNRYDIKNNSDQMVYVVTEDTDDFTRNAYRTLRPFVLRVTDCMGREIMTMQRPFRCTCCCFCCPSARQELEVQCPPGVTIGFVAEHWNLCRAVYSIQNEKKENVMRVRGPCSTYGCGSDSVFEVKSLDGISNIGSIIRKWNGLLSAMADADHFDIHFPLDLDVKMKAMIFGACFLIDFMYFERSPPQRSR

[5] = molecular target: T5, TruB pseudouridine synthase family member 1 (human, UniProt Q8WWH5 2-349)
T5 construct: HuProt array protein, full-length recombinant from yeast; also called TRUB1
T5 sequence: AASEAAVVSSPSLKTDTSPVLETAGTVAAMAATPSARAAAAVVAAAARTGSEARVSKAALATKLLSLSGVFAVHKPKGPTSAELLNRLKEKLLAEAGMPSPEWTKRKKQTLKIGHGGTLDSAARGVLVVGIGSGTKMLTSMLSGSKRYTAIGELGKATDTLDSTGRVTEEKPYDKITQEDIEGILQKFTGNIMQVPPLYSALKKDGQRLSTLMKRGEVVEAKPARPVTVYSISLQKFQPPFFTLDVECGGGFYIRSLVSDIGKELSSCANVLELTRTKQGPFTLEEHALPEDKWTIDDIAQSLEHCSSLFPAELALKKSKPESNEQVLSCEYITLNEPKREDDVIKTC

extended synaptotagmin 2 = molecular target: T6, extended synaptotagmin 2 (human, UniProt A0FGR8 564-921)
T6 construct: HuProt array protein; labelled _frag; also called ESYT2_frag
T6 sequence: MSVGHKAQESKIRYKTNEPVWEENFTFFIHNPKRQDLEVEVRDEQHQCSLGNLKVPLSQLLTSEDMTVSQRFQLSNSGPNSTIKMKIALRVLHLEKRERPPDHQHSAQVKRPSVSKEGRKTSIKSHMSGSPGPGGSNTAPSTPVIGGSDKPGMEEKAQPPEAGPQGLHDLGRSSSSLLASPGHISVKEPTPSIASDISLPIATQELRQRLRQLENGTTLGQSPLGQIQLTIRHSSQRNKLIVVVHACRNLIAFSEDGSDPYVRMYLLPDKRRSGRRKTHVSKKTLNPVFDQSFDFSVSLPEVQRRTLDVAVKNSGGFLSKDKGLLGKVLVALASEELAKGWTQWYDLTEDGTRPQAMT

[6] = molecular target: T7, SATB homeobox 2, transcript variant 2 (human, UniProt Q9UPW6 1-733); assay: protein array
T7 construct: on protein array; also called SATB2
T7 sequence: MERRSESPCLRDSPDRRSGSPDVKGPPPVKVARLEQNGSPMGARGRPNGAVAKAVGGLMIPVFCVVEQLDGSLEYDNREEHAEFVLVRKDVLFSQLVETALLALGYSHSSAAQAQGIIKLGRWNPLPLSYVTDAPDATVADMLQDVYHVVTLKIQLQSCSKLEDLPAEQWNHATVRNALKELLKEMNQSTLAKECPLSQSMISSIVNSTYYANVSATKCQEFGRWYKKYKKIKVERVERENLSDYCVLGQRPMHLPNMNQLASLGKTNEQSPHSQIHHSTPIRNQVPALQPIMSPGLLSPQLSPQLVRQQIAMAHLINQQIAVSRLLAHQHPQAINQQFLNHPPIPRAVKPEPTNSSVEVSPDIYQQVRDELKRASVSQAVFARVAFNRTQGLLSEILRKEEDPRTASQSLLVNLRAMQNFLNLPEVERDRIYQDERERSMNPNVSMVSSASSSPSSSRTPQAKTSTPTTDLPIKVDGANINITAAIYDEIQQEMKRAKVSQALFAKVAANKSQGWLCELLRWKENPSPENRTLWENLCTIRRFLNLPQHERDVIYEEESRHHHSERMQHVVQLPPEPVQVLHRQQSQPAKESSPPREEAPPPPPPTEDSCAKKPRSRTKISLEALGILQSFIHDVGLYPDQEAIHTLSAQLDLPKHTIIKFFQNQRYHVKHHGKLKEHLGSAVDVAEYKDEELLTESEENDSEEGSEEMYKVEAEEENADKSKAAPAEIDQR

zinc finger protein 8 = molecular target: T8, zinc finger protein 8 (human, UniProt P17098 1-575); assay: protein array
T8 construct: on protein array; also called ZNF8

[7] = molecular target: T9, ganglioside induced differentiation associated protein 1, transcript variant 2 (human, UniProt Q8TB36 69-358); assay: protein array
T9 construct: on protein array; also called GDAP1
T9 sequence: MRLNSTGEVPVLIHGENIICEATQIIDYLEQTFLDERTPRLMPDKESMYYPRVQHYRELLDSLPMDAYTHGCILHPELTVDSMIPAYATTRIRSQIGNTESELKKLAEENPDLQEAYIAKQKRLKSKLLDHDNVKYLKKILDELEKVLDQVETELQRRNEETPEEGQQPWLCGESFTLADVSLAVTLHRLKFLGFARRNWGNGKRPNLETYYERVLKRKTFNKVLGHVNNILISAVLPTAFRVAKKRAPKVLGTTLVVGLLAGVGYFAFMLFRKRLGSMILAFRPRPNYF

T8 sequence (P17098 whole entry): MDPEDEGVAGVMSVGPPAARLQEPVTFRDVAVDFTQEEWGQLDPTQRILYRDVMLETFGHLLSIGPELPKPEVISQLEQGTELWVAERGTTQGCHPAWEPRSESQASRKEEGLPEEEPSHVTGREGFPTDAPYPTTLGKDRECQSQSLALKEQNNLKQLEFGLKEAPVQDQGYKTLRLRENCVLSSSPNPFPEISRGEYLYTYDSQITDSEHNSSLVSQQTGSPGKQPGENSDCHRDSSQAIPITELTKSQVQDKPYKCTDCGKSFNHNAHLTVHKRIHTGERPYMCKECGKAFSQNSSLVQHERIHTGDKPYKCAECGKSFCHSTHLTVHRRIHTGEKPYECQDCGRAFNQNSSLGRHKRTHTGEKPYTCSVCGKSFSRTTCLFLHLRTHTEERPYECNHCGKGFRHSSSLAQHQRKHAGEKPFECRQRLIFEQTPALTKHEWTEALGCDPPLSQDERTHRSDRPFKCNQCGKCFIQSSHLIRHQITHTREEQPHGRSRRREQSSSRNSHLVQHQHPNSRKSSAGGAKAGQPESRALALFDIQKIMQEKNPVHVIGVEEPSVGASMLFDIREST

B1: TCHO1001 (antibody, V domains shown)
VH: PVHLVQSGAEVKKPGSSVKVSCKLSGGIFSYFAIIWVRQAPGQGLEWMGTIIPIFGTSNYAEKFQDRVAIVADEATSTVYMEVNSLRSEDTAIYFCARDSEVEKSDGYMASTAEYFQLWGQGTLVTVSS
VL: not shown
notes: detected with anti-human IgG Fc; also called TCH01001
B1: binds [1].

B2: TCER1002 (antibody, V domains shown)
VH: QVQLQESGPGLVKPSETLSLSCTVSGASMNNYYWSWIRQSAGKGLEWIGRIYSSGDTDYNPSLKTRVTMSIDTSKNQFSLNLDSVTAADTATYYCARSFYDTLFYFENWGQGTLVTVSS
VL: DIQMTQSPSTLSASVGDRVTITCRASQSISVWLAWYQQKPGKAPKLLIYKASTLEAGVPSRFSGSGSGTEFSLTISGLQPDDFGTYFCQHYDSYPWTFGQGTKVEMK
notes: detected with anti-human IgG Fc
B2: binds [2].

B3: TCER1006 (antibody, V domains shown)
VH: EVQLVQSGAEVKKPGESLKISCKGSGYSFTSFWIGWVRQMPGKGLEWMGIIFPADSDTRYSPSFQGQVIISVDKSISTAYLQWSSLKASDTAMYYCARRGVSGGSAWTYYNFFDPWGQGTLVTVAS
VL: PSVLTQPPSVSAAPGQKVTISCSGSSSNIDNNYVSWYQQLPGTAPKLLIYENNKRASGIPDRFSGSKSGTSATLGITGLQTGDEADYYCGTWDSSLSPGGVFGGGTKLTVLG
notes: as for B2
B3: binds [3].

B4: TCER1003 (antibody, V domains shown)
VH: QITLKESGPTLVKPTQTLTLTCTFSGFSLTTTDVGVGWIRQPPGKALEWLTIIYWDDDERYSPSLKSRLTITKDTSKNQVVLSMTNMDPVDTATYYCARVYSTKWDFDYWGQGTLVTVSS
VL: VSSELTQDPAVSVALGQTVRITCQGDSLRRYYVSWYRQKPGEAPVVVIYGKNNRPSWIPDRLSGSSSGNTASLTITGAQAEDEADYYCCSRDSSGNPWVFGGGTKLTVLG
notes: as for B2
B4: binds [4]; binds [5].

B5: TCOL1004 (antibody, V domains shown)
VH: QVQLQESGPGLVKPSQTLSLTCIVSGGSISGDKNFWSWVRQHPEKGLEWLGYISYNGNTYYNPSLISRIIISLDTPKNLFSLRLSSVTVADTAIYYCAREVDIRGDSDAFDIWGRGTVVTVSS
VL: EIVMTQSPATLSVSPGERATLSCRASQSVSTNLAWYQQRPGQAPRLFIFGASTRATGIPARFSGSGSGTEFTLTISSPQPEDSAVYYCQQYTTRPLTFGGGTKVEIKR
notes: as for B2
B5: binds (extended synaptotagmin 2).

B6: TBRE1017 (antibody, V domains shown)
VH: QVQLVQSGAEVKKPGASVKVSCKASGYNFRDYYMHWVRQAPGQGLEWMGWINPNSGGTISAQNFQGRVTMTRDTSISTAYMEVNSLRSDDTAVYYCAVGMVTDGFEIWGQGTLVTVSS
VL: PYELTQPPSVSVSPGQTARITCSGDALPNENAFWYQQKPGQAPVLVIYEDIKRPSGIPERFSGSSSGTTVTLTISGVQAEDEADYYCQSVDITSTWVFGGGTKLTVLG
notes: VH/VL only
B6: binds [6]; binds (zinc finger protein 8); binds [7].

Source: patent US20220204643A1 (published 2022)
